B1: Dimethyl sulfoxide reductase DmsA (Escherichia coli (strain K12)), P18775 (parent)
chain: MKTKIPDAVLAAEVSRRGLVKTTAIGGLAMASSALTLPFSRIAHAVDSAIPTKSDEKVIWSACTVNCGSRCPLRMHVVDGEIKYVETDNTGDDNYDGLHQVRACLRGRSMRRRVYNPDRLKYPMKRVGARGEGKFERISWEEAYDIIATNMQRLIKEYGNESIYLNYGTGTLGGTMTRSWPPGNTLVARLMNCCGGYLNHYGDYSSAQIAEGLNYTYGGWADGNSPSDIENSKLVVLFGNNPGETRMSGGGVTYYLEQARQKSNARMIIIDPRYTDTGAGREDEWIPIRPGTDAALVNGLAYVMITENLVDQAFLDKYCVGYDEKTLPASAPKNGHYKAYILGEGPDGVAKTPEWASQITGVPADKIIKLAREIGSTKPAFISQGWGPQRHANGEIATRAISMLAILTGNVGINGGNSGAREGSYSLPFVRMPTLENPIQTSISMFMWTDAIERGPEMTALRDGVRGKDKLDVPIKMIWNYAGNCLINQHSEINRTHEILQDDKKCELIVVIDCHMTSSAKYADILLPDCTASEQMDFALDASCGNMSYVIFNDQVIKPRFECKTIYEMTSELAKRLGVEQQFTEGRTQEEWMRHLYAQSREAIPELPTFEEFRKQGIFKKRDPQGHHVAYKAFREDPQANPLTTPSGKIEIYSQALADIAATWELPEGDVIDPLPIYTPGFESYQDPLNKQYPLQLTGFHYKSRVHSTYGNVDVLKAACRQEMWINPLDAQKRGIHNGDKVRIFNDRGEVHIEAKVTPRMMPGVVALGEGAWYDPDAKRVDKGGCINVLTTQRPSPLAKGNPSHTNLVQVEKV
partner: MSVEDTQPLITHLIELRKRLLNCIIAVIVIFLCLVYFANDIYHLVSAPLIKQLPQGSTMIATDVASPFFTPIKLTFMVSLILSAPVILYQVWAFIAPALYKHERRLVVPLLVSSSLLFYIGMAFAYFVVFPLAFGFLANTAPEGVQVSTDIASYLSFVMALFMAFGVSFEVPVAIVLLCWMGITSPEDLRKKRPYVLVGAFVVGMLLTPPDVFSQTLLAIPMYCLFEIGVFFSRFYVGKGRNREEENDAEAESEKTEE
B2: Sec-independent protein translocase protein TatC (Escherichia coli (strain K12)), P69423 (parent)
chain: B1 partner
B3: Dimethyl sulfoxide reductase DmsA (Escherichia coli (strain K12)), P18775 (parent)
chain: B1 chain
partner: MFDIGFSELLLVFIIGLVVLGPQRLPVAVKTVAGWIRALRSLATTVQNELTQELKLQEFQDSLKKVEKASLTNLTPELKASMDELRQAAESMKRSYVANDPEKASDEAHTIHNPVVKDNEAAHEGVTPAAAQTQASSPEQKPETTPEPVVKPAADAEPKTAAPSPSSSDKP
B4: Tat proofreading chaperone DmsD (Escherichia coli (strain K12)), P69853 (parent)
chain: MTHFSQQDNFSVAARVLGALFYYAPESAEAAPLVAVLTSDGWETQWPLPEASLAPLVTAFQTQCEETHAQAWQRLFVGPWALPSPPWGSVWLDRESVLFGDSTLALRQWMREKGIQFEMKQNEPEDHFGSLLLMAAWLAENGRQTECEELLAWHLFPWSTRFLDVFIEKAEHPFYRALGELARLTLAQWQSQLLIPVAVKPLFR

Variants of: B1
Settings: with tatc_ecoli tatC, P69423

effect of a mutation on the interaction	Variant
increasing interaction	R16K;R17K

Variants of: B2
Settings: with dmsa_ecoli dmsA, P18775

effect of a mutation on the interaction	Variant
decreasing interaction	P48A
decreasing interaction	E103R

Variants of: B2
Settings: with dmsd_ecoli dmsD

effect of a mutation on the interaction	Variant
decreasing interaction	P48A
disrupting interaction	E103R

Variants of: B3
Settings: with tatb_ecoli tatB

effect of a mutation on the interaction	Variant
increasing interaction	R16K;R17K

Variants of: B4
Settings: with dmsa_ecoli dmsA

effect of a mutation on the interaction	Variant
increasing interaction	W72H;L75Y

Reference: IntAct's records for PubMed 20169075
